# Assay results as given in paper PMC5737894.
# T1: DRB4 H32A/K133A (Arabidopsis thaliana, UniProt Q8H1D4 1-355, H32A;K133A)
# T1 sequence: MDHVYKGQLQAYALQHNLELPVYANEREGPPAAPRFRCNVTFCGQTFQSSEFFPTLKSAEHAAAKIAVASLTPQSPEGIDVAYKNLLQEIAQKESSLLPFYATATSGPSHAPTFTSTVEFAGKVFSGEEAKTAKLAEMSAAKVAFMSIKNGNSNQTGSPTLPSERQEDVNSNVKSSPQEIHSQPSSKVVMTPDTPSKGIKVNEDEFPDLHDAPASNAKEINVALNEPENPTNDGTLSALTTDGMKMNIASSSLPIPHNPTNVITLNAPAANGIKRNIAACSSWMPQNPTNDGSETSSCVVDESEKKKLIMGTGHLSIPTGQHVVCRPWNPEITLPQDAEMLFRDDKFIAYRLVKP
# T2: DRB4D1D2 (Arabidopsis thaliana, UniProt Q8H1D4 1-153)
# T2 sequence: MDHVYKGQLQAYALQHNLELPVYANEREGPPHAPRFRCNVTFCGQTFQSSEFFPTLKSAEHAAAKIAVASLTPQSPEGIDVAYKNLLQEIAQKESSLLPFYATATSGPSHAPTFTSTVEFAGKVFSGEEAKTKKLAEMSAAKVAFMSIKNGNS
# T3: DRB4C (Arabidopsis thaliana, UniProt Q8H1D4 154-355)
# T3 sequence: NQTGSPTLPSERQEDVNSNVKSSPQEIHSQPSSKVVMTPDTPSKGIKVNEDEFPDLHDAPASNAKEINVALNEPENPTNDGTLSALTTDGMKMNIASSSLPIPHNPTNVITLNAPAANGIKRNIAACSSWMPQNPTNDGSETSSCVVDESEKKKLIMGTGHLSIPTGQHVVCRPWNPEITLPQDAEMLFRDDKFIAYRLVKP
# T4: DRB4D1D2 H32A/K133A (Arabidopsis thaliana, UniProt Q8H1D4 1-153, H32A;K133A)
# T4 sequence: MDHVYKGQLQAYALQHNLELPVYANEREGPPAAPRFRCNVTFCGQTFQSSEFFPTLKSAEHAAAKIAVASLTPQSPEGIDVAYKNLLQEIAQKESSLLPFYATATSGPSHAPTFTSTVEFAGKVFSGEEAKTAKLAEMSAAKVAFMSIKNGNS
# T5: DRB4D2D1 (Arabidopsis thaliana, UniProt Q8H1D4 1-3+82-150+73-81+4-72, internal_change)
# T5 sequence: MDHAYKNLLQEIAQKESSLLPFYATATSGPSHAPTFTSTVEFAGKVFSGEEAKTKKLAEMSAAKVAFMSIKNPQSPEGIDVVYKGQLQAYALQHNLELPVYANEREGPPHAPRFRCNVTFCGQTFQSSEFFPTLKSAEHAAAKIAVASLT
# T6: DRB4 (Arabidopsis thaliana, UniProt Q8H1D4 1-355)
# T6 sequence: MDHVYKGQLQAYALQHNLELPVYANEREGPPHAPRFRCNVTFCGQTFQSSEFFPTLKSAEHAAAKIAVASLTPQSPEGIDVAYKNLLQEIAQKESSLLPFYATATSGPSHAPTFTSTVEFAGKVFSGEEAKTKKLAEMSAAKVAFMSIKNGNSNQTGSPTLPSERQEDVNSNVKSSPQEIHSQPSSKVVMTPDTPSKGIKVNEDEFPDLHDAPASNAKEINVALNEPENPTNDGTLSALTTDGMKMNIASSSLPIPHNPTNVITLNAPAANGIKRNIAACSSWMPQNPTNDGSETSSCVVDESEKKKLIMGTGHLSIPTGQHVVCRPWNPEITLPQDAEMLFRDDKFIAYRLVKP
# Tests used:
# DRB4 H32A/K133A = target: T1, DRB4 H32A/K133A; assay: EMSA
# DRB4D1D2 = target: T2, DRB4D1D2; assay: ITC
# DRB4C = target: T3, DRB4C; assay: EMSA
# DRB4D1D2 H32A/K133A = target: T4, DRB4D1D2 H32A/K133A; assay: EMSA
# DRB4D2D1 = target: T5, DRB4D2D1; assay: ITC
# DRB4 = target: T6, DRB4; assay: ITC
binder,measurement,setting,value
80 bp dsRNA (dsRNA) RNA 1: GGGUGCUGUUUCUCGUGUUCGUGUUCGUUUCUCUUCUCUUGUCCUUGUUCUGUUCUCCUUUGUUCGUUCCUGUUCCCCUU RNA 2: AAGGGGAACAGGAACGAACAAAGGAGAACAGAACAAGGACAAGAGAAGAGAAACGAACACGAACACGAGAAACAGCACCC,binding result,DRB4 H32A/K133A,no binding
same,Kd,DRB4D1D2,400 ± 30 nM
same,binding result,DRB4C,no binding
same,binding result,DRB4D1D2 H32A/K133A,no binding
same,Kd,DRB4D2D1,4000 ± 400 nM
same,Kd,DRB4,120 ± 40 nM
